Data from patent US20140377262A1.

Legend:
[1] = target: HA protein of B/Florida/4/2006 (vaccine antigen) (influenza B virus B/Florida/4/2006)
[2] = target: HA protein of B/Florida/4/2006 (influenza B virus B/Florida/4/2006); assay: cell-based or functional assay
[3] = target: HA protein of B/Johannesburg/5/1999 (influenza B virus B/Johannesburg/5/1999); assay: cell-based or functional assay
[4] = target: HA protein of B/Malaysia/2506/2004 (influenza B virus B/Malaysia/2506/2004); assay: cell-based or functional assay
[5] = target: HA protein of B/Mie/1/1993 (influenza B virus B/Mie/1/1993); assay: cell-based or functional assay
[6] = target: HA protein of B/Shandong/7/1997 (influenza B virus B/Shandong/7/1997); assay: cell-based or functional assay
[7] = target: HA protein of B/Shanghai/361/2002 (influenza B virus B/Shanghai/361/2002); assay: cell-based or functional assay
[8] = target: HA protein of B/Victoria/2/1987 (influenza B virus B/Victoria/2/1987); assay: cell-based or functional assay
[9] = target: HA protein of B/Yamanashi/166/1998 (influenza B virus B/Yamanashi/166/1998); assay: cell-based or functional assay

B1: HuMAb 5A7 (human monoclonal antibody from hybridoma) (antibody, V domains shown)
VH: QVQLVESGGDVVQPGRSLRLSCAASGFTFNNYGMHWVRQAPGKGLEWVAVVWYDGLIKYYADSVKGRFTISRDNSKNTLYLQMNTLRAEDMGVYYCARDLQPPHSPYGMDVWGQGTTVTVSS
VL: QSVLTQPPSASGTPGQRVTISCSGSSSNIGSNDVYWYQNLPGTAPKLLIYNNNQRPSGVPDRFSGSKSGTSASLAISGLRSEDEADYYCAAWDDSLTVSFGTGTKVTVL
With B1 the Kd [1] was < 5.6 nM, the Fusion inhibition [2] was 100 µg/mL and the HI [2] was 25 µg/mL. For the same binder, the VN50 [2] was 6.25 µg/mL, the VN50 [3] was 6.25 µg/mL and the VN50 [4] was 6.25 µg/mL. It also gave a VN50 [5] of 6.25 µg/mL, a VN50 [6] of 25 µg/mL and a VN50 [7] of 6.25 µg/mL. For the same binder, the VN50 [8] was 25 µg/mL and the VN50 [9] was 6.25 µg/mL.
